Experiments:
[1] = Number and Brightness; conditions: other: Number and Brightness (N&B) analysis
[2] = target: GFP-FR (Folate Receptor), GPI-anchored, in MDCK cells; assay: Number and Brightness
[3] = target: GFP-FR, in CHO cells; assay: Number and Brightness

Row | Substance | percent of GFP-FR in aggregates of three-four molecules [1] | average B value (brightness) [2] | average B value (brightness) [3] | percent of GFP-FR in clusters of 3 to 4 or 5 molecules [3] [%]
1 | GFP-FR (Folate Receptor), GPI-anchored, in MDCK cells | about 30-35% of GFP-FR | 1.29 | – | –
2 | GFP-FR, in CHO cells | – | – | 1.36 | 50

From PMC4027978
